Target: T1, His6-HA-Nak1 (S. pombe, UniProt O75011 1-652)
T1 construct: Nak1, Ser/Thr kinase of fission yeast (Schizosaccharomyces pombe); HA-Nak1 inserted into pET33b; also called pET33b-His6-HA-Nak1; source: E. coli BL21, purified (NiNTA agarose)
T1 sequence (looked up): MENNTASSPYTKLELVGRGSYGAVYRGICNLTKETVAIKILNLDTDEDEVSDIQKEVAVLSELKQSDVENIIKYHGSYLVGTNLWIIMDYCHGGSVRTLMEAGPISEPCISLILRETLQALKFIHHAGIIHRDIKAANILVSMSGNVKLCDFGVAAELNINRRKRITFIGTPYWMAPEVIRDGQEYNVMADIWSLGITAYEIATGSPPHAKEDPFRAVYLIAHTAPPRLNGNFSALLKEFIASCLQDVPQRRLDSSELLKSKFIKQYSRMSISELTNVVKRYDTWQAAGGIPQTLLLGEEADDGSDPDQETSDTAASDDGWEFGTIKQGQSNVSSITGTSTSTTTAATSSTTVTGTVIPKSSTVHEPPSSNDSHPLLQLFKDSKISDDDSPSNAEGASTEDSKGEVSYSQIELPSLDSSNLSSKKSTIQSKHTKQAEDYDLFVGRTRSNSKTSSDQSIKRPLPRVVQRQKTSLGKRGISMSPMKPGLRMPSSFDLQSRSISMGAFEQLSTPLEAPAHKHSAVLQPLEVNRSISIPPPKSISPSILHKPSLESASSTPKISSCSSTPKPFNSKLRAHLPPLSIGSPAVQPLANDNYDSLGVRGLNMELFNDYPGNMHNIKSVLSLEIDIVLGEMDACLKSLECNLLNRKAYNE
Assay: pull-down; GST or GST-Orb6 bound to Glutathione Sepharose 4B beads incubated with His6-HA-Nak1 for 2 h; washed 3 times with 150 mM NaCl, 1 mM DTT, phosphate pH 7.3; western blot with anti-HA (12CA5)
Conditions: both partners purified

B1: GST-Orb6 (enzyme, S. pombe, UniProt O13310 1-469, looked up)
chain: MDKNDYLHFERNPSLFPKSTLDKVQKTKKYIEHYYKVAVDHAVERNQRRINLEQRLATERGSEERKNRQLRASGEKESQFLRFRRTRLSLEDFSTIKVIGKGAFGEVRLVQKLDTGKIYAMKSLLKTEMFKRDQLAHVKAERDLLVESDSPWVVSLYYAFQDSLYLYLIMEFLPGGDLMTMLINYDTFSEDVTRFYMAECVLAIADVHRMGYIHRDIKPDNILIDRDGHIKLSDFGLSTGFYKQDQSASYMKPRTGNTVKRGQMVDAIWLTMSSKDKMATWKKNRRVMAYSTVGTPDYIAPEIFLQQGYGQDCDWWSLGAIMFECLIGWPPFCSENSHETYRKIINWRETLTFPNDIHLSIEARDLMDRLMTDSEHRLGRGGAIEIMQHPFFTGIDWDHIRETAAPFIPNLKSITDTHYFPVDELEQVPEQPVTQQPASVDPQTLEQTNLAFLGYTYKKFNYLTMKGAL
notes: Orb6, Ndr-related Ser/Thr kinase of fission yeast (Schizosaccharomyces pombe); PCR-amplified cDNA fragment encoding Orb6 in pGEX-5X-1 (a pGEX-6p-1 construct was also made); also called pGEX-5X-1-Orb6; source: E. coli BL21, purified (Glutathione Sepharose 4B)
  binding result: binds

Source: article PMC3357421, “Conserved Orb6 Phosphorylation Sites Are Essential for Polarized Cell Growth in Schizosaccharomyces pombe” (PLoS ONE, 2012)
